Biological target: T1, GST-CCT4 (Drosophila, UniProt Q9VK69 1-533)
T1 construct: CCT4, Drosophila; source: E. coli BL21 (IPTG-inducible), purified using a standard method
T1 sequence (looked up): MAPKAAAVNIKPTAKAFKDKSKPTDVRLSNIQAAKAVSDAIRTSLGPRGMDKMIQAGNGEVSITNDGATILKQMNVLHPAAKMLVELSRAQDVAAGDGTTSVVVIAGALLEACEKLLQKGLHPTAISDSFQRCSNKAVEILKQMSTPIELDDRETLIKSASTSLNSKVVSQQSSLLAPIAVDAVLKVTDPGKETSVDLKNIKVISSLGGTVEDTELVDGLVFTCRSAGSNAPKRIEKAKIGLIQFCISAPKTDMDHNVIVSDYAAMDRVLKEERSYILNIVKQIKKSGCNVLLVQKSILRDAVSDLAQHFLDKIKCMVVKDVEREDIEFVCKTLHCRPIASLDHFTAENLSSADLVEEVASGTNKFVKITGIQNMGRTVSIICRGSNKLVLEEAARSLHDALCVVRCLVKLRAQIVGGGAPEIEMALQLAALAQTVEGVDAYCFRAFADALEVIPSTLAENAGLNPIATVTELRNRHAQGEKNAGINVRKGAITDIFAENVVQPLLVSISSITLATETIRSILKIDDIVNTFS
Assay: pull-down; MBP-pulldown of MBP-tagged bait with GST-CCT4; pulldown buffer 20 mM Tris pH 7.5, 150 mM NaCl, 0.5 mM EDTA, 10% glycerol, 0.1% Triton X-100, 1 mM DTT; blots with anti-MBP and anti-GST
Conditions: both partners purified

B1: MBP-Rheb (natural protein, Drosophila, UniProt Q9VND8 1-182, looked up)
chain: MPTKERHIAMMGYRSVGKSSLCIQFVEGQFVDSYDPTIENTFTKIERVKSQDYIVKLIDTAGQDEYSIFPVQYSMDYHGYVLVYSITSQKSFEVVKIIYEKLLDVMGKKYVPVVLVGNKIDLHQERTVSTEEGKKLAESWRAAFLETSAKQNESVGDIFHQLLILIENENGNPQEKSGCLVS
notes: also called full-length Rheb; source: E. coli BL21 (IPTG-inducible), purified using a standard method
  binding result: binds
